From publication PMC6404581, “Staphylococcus aureus toxin LukSF dissociates from its membrane receptor target to enable renewed ligand sequestration” (The FASEB Journal, 2018)

Tests used:
[1] = molecular target: sortase-tagged FITC-labeled human C5a receptor, on HEK cells (human) (UniProt P21730); test: FRET or BRET; sensitized emission FRET, live sortase-tagged FITC-hC5aR cells (donor) with Cy3 mS* (acceptor), 1 h at +4°C, washed, before addition of mF
[2] = molecular target: human C5a receptor, endogenous on human polymorphonuclear cells (human (endogenous in PMNs)) (UniProt P21730)
[3] = molecular target: sortase-tagged FITC-labeled human C5a receptor, on HEK cells (human) (UniProt P21730); test: FRET or BRET; sensitized emission FRET, fixed FITC-hC5aR cells with one Cy3-labeled toxin component alone (Cy3 mS* or only Cy3 mF*), 30 min at 4°C then 10 min at 37°C, washed, fixed, PBS
[4] = molecular target: T1, wild-type Staphylococcus aureus leukocidin S (Staphylococcus aureus, UniProt O80066 29-312); test: flow cytometry on cells; settings: both partners purified
T1 construct: also called S(wt); LukS; source: E. coli Rosetta-gami 2 (DE3) pLysS, purified (nickel HisTrap, Superdex 75)
T1 sequence: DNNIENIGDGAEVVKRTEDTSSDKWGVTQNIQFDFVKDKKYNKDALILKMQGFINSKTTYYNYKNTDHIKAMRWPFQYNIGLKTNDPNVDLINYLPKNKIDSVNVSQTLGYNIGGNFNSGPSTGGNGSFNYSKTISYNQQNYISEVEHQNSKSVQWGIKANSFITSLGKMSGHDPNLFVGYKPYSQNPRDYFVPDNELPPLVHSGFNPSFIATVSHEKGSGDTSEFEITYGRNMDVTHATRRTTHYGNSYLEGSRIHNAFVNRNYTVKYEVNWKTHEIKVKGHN

Chain of sortase-tagged FITC-labeled human C5a receptor, on HEK cells (human) (P21730 whole entry): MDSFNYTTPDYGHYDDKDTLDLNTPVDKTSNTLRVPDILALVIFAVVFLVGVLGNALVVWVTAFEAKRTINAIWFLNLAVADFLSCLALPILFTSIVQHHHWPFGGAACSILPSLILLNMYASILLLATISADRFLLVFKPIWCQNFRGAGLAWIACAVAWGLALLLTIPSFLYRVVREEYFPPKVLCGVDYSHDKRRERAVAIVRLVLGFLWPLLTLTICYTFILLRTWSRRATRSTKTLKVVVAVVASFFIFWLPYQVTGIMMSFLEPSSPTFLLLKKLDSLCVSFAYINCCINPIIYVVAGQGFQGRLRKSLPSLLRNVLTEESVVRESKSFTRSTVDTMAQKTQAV
Chain of human C5a receptor, endogenous on human polymorphonuclear cells (human (endogenous in PMNs)) (P21730 whole entry): as above

maleimide-labeled LukS-K281C-Y113H (natural protein)
FRET efficiency [1]: 75% | toxin concentration at which PMN permeabilization (DAPI uptake, flow cytometry, 30 min) reaches 100%; modified toxins in place of the wild-type ones [2]: 3 nM | FRET efficiency [3]: 60%

B1: G130D leukocidin component F (natural protein, Staphylococcus aureus)
chain: MGSQHITPVSEKKVDDKITLYKTTATSDSDKLKISQILTFNFIKDKSYDKDTLILKAAGNIYSGYTKPNPKDTISSQFYWGSKYNISINSDSNDSVNVVDYAPKNQNEEFQVQQTVGYSYGGDINISNGLSGDGNGSKSFSETINYKQESYRTSLDKRTNFKKIGWDVEAHKIMNNGWGPYGRDSYHSTYGNEMFLGSRQSNLNAGQNFLEYHKMPVLSRGNFNPEFIGVLSRKQNAAKKSKITVTYQREMDRYTNFWNQLHWIGNNYKDENRATHTSIYEVDWENHTVKLIDTQSKEKNPMSAAA
notes: cloning residues before LukF; LukF-PV, S. aureus; they already carry the D (LSGDGNG); residues from the NotI site between LukF and the C-terminal His6; also called F(G130D); LukF mutant G130D LukF; source: E. coli Rosetta-gami 2 (DE3) pLysS, purified (nickel HisTrap, Superdex 75)
binding result [4]: binds
